Measured values as given in patent US20130189714A1, “METHOD FOR THE DETECTION AND/OR QUANTIFICATION OF THE INTERACTION OF PLATELETS WITH INTERACTION PARTNERS” (SANOFI, priority 2010, published 2013).

What was measured:
[1] = molecular target: platelet glycoprotein GpIb alpha (CD42b antigen), on live human platelets (human) (UniProt P07359); test: platelet adhesion to vWF-A1 coated wells, AK2 at 2 ug/ml, Acumen cytometry
[2] = molecular target: collagen receptor on live human platelets (human); test: platelet adhesion to rat tail collagen 1 coated wells vs BSA, 6 plates under automated conditions, Acumen cytometry
[3] = molecular target: platelet glycoprotein GpIb alpha (CD42b antigen), on live human platelets (human) (UniProt P07359); test: platelet adhesion to vWF-A1 coated wells vs BSA, automated run of 30 plates, Acumen cytometry
[4] = molecular target: platelet glycoprotein GpIb alpha (CD42b antigen), on live human platelets (human) (UniProt P07359); test: platelet adhesion to coated wells, optimized wash program, Acumen cytometry; reference BSA-coated wells
[5] = molecular target: platelet glycoprotein GpIb alpha (CD42b antigen), on live human platelets (human) (UniProt P07359); test: platelet adhesion to vWF-A1 coated wells vs BSA-coated wells, optimized washer settings, Acumen cytometry

platelet glycoprotein GpIb alpha (CD42b antigen), on live human platelets (human), sequence (P07359 17-652): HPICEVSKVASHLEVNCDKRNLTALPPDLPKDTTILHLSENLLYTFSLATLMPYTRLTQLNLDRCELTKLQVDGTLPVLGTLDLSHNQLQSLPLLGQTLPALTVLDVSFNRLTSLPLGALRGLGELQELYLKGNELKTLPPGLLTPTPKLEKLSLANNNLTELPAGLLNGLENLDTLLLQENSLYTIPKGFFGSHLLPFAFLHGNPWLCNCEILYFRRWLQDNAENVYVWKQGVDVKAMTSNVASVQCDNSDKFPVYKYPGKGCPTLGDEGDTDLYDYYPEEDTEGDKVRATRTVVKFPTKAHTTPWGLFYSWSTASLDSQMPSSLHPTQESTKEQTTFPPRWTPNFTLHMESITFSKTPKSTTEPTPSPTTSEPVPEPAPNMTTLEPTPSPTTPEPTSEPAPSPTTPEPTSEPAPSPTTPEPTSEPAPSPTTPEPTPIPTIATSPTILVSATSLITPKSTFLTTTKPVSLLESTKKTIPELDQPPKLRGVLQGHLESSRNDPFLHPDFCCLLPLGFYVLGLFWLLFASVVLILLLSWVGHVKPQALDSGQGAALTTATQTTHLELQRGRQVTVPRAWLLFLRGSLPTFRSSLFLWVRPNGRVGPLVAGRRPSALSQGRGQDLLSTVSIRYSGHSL
vWF-A1 (von Willebrand factor A1 domain, Aa 475-706), His-tagged recombinant protein (ligand), sequence (chain): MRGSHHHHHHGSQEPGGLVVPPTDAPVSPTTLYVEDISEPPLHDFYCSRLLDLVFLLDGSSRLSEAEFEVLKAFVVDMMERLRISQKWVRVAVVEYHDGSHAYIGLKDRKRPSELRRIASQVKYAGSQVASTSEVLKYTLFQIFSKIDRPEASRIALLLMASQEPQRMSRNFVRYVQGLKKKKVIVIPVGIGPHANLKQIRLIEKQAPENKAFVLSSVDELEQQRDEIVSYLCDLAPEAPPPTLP

With “Mouse anti-human CD42b monoclonal antibody, clone AK2 (Chemicon international, catalog No. CBL166)” the % inhibition of platelet adhesion [1] was 90%.
“Collagen I (rat tail, SIGMA C8897) (from UniProt P02454 152-1207; P02466 86-1125) (ligand)” was tested, and the S/B [2] was 20 fold.
Substance “vWF-A1 (von Willebrand factor A1 domain, Aa 475-706), His-tagged recombinant protein (ligand)” has a S/B [3] of 20 fold, a S/B (number platelets attached to vWF-A1 vs BSA) [4] of 70 fold and a S/B [5] of 78 fold.
